# In patent US6096512A, “Cloned DNA encoding a UDP-GalNAc: Polypeptide, N-acetylgalactosaminyltransferase” (Pharmacia & Upjohn Company, priority 1997, dated 2000):
# T1: bovine colostrum GalNAc-transferase (Bos taurus, UniProt Q07537)
# T1 sequence (Q07537 41-559): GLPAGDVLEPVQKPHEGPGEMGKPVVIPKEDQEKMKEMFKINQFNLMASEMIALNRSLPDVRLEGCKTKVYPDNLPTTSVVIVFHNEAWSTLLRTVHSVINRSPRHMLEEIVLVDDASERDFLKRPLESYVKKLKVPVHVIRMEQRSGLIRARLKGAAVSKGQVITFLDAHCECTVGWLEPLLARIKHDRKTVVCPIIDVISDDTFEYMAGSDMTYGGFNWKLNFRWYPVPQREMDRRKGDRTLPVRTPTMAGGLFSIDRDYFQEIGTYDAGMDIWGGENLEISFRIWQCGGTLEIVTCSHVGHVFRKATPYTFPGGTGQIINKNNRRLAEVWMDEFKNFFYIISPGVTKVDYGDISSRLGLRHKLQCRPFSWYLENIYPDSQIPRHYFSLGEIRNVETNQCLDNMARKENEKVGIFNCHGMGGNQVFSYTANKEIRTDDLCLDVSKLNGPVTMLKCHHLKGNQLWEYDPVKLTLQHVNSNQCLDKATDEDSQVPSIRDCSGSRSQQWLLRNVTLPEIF
# Columns and labels:
# [1] = biological target: T1, bovine colostrum GalNAc-transferase; test: Transfer of N-acetylgalactosamine to protein acceptors by bovine colostrum GalNAc-transferase; format: biochemical; details: acceptor 65 μM, enzyme approximately 65 mU/ml, 60 minutes
# Procedure: The standard assay for UDP-GalNAc:polypeptide, N-acetylgalactosaminyltransferase activity during purification contained the following components in a final volume of 80 μl: 50 mM Imidazole pH 7.2, 10 mM MnCl2, 0.5% Triton X-100, 15 μM UDP-GalNAc, UDP[1-^3 H-] GalNAc (27,000 cpm/assay), 0.15 mg/ml apomucin and varying amounts of enzyme (see individual experiments). The reaction mixture is incubated at 37° C. for 5-10 minutes (see individual experiments) and the reaction product is TCA precipitated and radioactivity measured as described. Assays for activity in lysates from Spodoptera frugiperda cell line 9 (hereinafter referred to as Sf9 cells) are carried out as described by Thomsen et al., (1990).
# The above conclusions and the predictions of the specificity algorithm are validated experimentally by studying the ability of bovine colostrum GalNAc-transferase to transfer N-acetylgalactosamine to a variety of acceptors, both native proteins and synthetic acceptor peptides. The transfer of N-acetylgalactosamine to protein acceptors is assayed as described by Elhammer and Kornfeld, 1986, with minor modifications. The concentration of UDP-GalNAc is saturating in all assays; a Km of 8 μM is reported for bovine colostrum GalNAc-transferase (Elhammer and Kornfeld, 1986).
# The transfer of N-acetylgalactosamine to protein acceptors was assayed
# under standard conditions (see Material and Methods). The acceptor
# concentration was 65 μM, the enzyme concentration approximately
# 65 mU/ml and assay time was 60 minutes. The transfer to both native and
# reduced-carboxymethylated acceptors was assayed.
# [2] = biological target: T1, bovine colostrum GalNAc-transferase; details: Cruz and Moscarello, 1983; cited from earlier work
molecule,measurement,setting,value
"Myelin basic protein: efficient acceptor for GalNAc-transferase, included as a positive control (protein, UniProt P02686 1-304, looked up) Myelin basic protein: MGNHAGKRELNAEKASTNSETNRGESEKKRNLGELSRTTSEDNEVFGEADANQNNGTSSQDTAVTDSKRTADPKNAWQDAHPADPGSRPHLIRLFSRDAPGREDNTFKDRPSESDELQTIQEDSAATSESLDVMASQKRPSQRHGSKYLATASTMDHARHGFLPRHRDTGILDSIGRFFGGDRGAPKRGSGKDSHHPARTAHYGSLPQKSHGRTQDENPVVHFFKNIVTPRTPPPSQGKGRGLSLSRFSWGAEGQRPGFGYGGRASDYKSAHKGFKGVDAQGTLSKIFKLGGRDSRSGSPMARR","Product formed, native acceptor",[1]; native,22.2 nmol/min/mg
same,"Product formed, reduced and carboxymethylated acceptor",[1]; myelin basic protein was not reduced and carboxymethylated,21.3 nmol/min/mg
same,N-acetylgalactosamines per molecule,[2],1.2 to 1.5 N-acetylgalactosamines per molecule
